# Laboratory results from publication PMC8073976, “Towards Targeted Alpha Therapy with Actinium-225: Chelators for Mild Condition Radiolabeling and Targeting PSMA—A Proof of Concept Study” (Cancers, 2021).
# Assay type: physicochemical
# Conditions: pH 6
# From the text: Unfortunately, a suitable reversed-phase iTLC system for the ligands mcp-M-PSMA and mcp-D-PSMA was not found so far to determine the radiochemical yields. The resolution of our standard system was not efficient, most likely due to the bigger size of these molecules compared to the basic chelators, different protonation steps and possible conformational structures. […] Additionally, the stability of the ^225Ac-labeled conjugates in acetate buffer was investigated by HPLC analyses over a period of ten days.
# Actinium-225 was purchased as a 0.1 M HCl solution from ITM Munich and used without purification. Stem solutions of all ligands were prepared in concentrations of 10^−2 M and diluted to 10^−6 M using 0.2 M ammonium acetate buffer at pH 6. For concentration-dependent labeling experiments, 10 µL of each ligand stem solution was incubated with 100 kBq of actinium-225 (1–5 µL) and the total volume was adjusted to 100 µL with 0.2 M ammonium acetate buffer at pH 6. For stability analyses, 50 µL of the buffer volume were replaced by 50 µL of 0.2 M ascorbic acid or 50 µL of 2,5-dihydroxy benzoic acid, respectively. […]
# All samples were incubated for one hour at room temperature and analyzed afterward. […] Radioactivity was measured in Isomed 2100 dose calibrator. Low radioactivity count rates were determined in Isomed 2160 sodium iodide detector. […]
structure (smiles),measurement,value
"O=C(O)CC[C@H](NC(=O)N[C@H](CCCCNC(=O)[C@@H](Cc1ccc2ccccc2c1)NC(=O)C1CCC(CNC(=O)CCCCn2cc(COc3cc(CN4CCOCCOCCN(Cc5cccc(C(=O)O)n5)CCOCCOCC4)nc(C(=O)O)c3)nn2)CC1)C(=O)O)C(=O)O (mixture of isomers) [mcp-M-PSMA, (3RS,10RS,14S)-1-((1s,4S)-4-((5-(4-(((2-Carboxy-6-((16-((6-carboxypyridin-2-yl)methyl)-1,4,10,13-tetraoxa-7,16-diazacyclooctadecan-7-yl)methyl)pyridin-4-yl)oxy)methyl)-1H-1,2,3-triazol-1-yl)pentanamido)methyl)cyclohexyl)-3-(naphthalen-2-ylmethyl)-1,4,12-trioxo-2,5,11,13-tetraazahexadecane-10,14,16-tricarboxylic acid]",stable in acetate buffer,at least 48 h
